Assays:
HLA-A*02:12 [1] = assay: IEDB peptide-MHC binding, purified MHC/competitive/fluorescence; filed as Kd, often an IC50 or EC50 that approximates it; ≥ and ≤ were set here for values at or beyond the usual limits of such assays
HLA-B*39:01 [2] = assay: as above
HLA-A*02:01 [3] = assay: as above
HLA-B*18:01 = assay: as above
HLA-A*02:19 [4] = assay: as above
HLA-A*02:03 [5] = assay: as above
HLA-A*29:02 = assay: as above; conditions: source organism: Salmonella enterica subsp. enterica serovar Paratyphi A str. AKU_12601
HLA-B*46:01 [6] = assay: as above
HLA-B*51:01 [7] = assay: as above
HLA-A*26:01 [8] = assay: as above
HLA-B*57:01 [9] = assay: as above
HLA-B*15:01 [10] = assay: as above
HLA-A*03:01 [11] = assay: as above
HLA-A*02:11 [12] = assay: as above
HLA-A*24:03 = assay: as above
HLA-B*15:17 = assay: as above; conditions: source organism: Salmonella enterica subsp. enterica serovar Paratyphi A str. AKU_12601
HLA-B*27:03 [13] = assay: as above
HLA-B*15:02 = assay: as above
HLA-A*02:06 = assay: as above
HLA-A*02:16 [14] = assay: as above
HLA-A*31:01 = assay: as above
HLA-A*11:01 = assay: IEDB peptide-MHC binding, purified MHC/direct/fluorescence; filed as Kd, often an IC50 or EC50 that approximates it; ≥ and ≤ were set here for values at or beyond the usual limits of such assays
HLA-A*69:01 [15] = assay: IEDB peptide-MHC binding, purified MHC/competitive/fluorescence; filed as Kd, often an IC50 or EC50 that approximates it; ≥ and ≤ were set here for values at or beyond the usual limits of such assays; conditions: source organism: Human immunodeficiency virus type 1 (ELI ISOLATE)
HLA-B*07:02 [16] = assay: as above; conditions: source organism: Mycobacterium tuberculosis variant bovis BCG str. Pasteur 1173P2
HLA-A*02:12 [17] = assay: IEDB peptide-MHC binding, purified MHC/direct/fluorescence; filed as Kd, often an IC50 or EC50 that approximates it; ≥ and ≤ were set here for values at or beyond the usual limits of such assays; conditions: source organism: Escherichia coli O157:H7 str. EC869
HLA-B*39:01 [18] = assay: as above; conditions: source organism: Escherichia coli O157:H7 str. EC869
HLA-A*02:01 [19] = assay: as above; conditions: source organism: Escherichia coli O157:H7 str. EC869
HLA-A*69:01 [20] = assay: as above; conditions: source organism: Escherichia coli O157:H7 str. EC869
HLA-A*02:19 [21] = assay: as above; conditions: source organism: Escherichia coli O157:H7 str. EC869
HLA-B*07:02 [22] = assay: as above; conditions: source organism: Escherichia coli O157:H7 str. EC869
HLA-A*02:03 [23] = assay: as above; conditions: source organism: Escherichia coli O157:H7 str. EC869
HLA-B*46:01 [24] = assay: as above; conditions: source organism: Escherichia coli O157:H7 str. EC869
HLA-B*51:01 [25] = assay: as above; conditions: source organism: Escherichia coli O157:H7 str. EC869
HLA-A*26:01 [26] = assay: as above; conditions: source organism: Escherichia coli O157:H7 str. EC869
HLA-B*57:01 [27] = assay: as above; conditions: source organism: Escherichia coli O157:H7 str. EC869
HLA-B*15:01 [28] = assay: as above; conditions: source organism: Escherichia coli O157:H7 str. EC869
HLA-A*03:01 [29] = assay: as above; conditions: source organism: Escherichia coli O157:H7 str. EC869
HLA-A*02:11 [30] = assay: as above; conditions: source organism: Escherichia coli O157:H7 str. EC869
HLA-B*35:01 = assay: as above; conditions: source organism: Escherichia coli O157:H7 str. EC869
HLA-A*68:02 = assay: as above; conditions: source organism: Escherichia coli O157:H7 str. EC869
HLA-A*02:16 [31] = assay: as above; conditions: source organism: Escherichia coli O157:H7 str. EC869
HLA-B*27:03 [32] = assay: as above; conditions: source organism: Escherichia coli O157:H7 str. EC869
[33] = source organism: Salmonella enterica subsp. enterica serovar Paratyphi A str. AKU_12601
[34] = source organism: Escherichia coli ATCC 8739
[35] = source organism: Vibrio cholerae 2740-80
[36] = source organism: Giardia lamblia ATCC 50803
[37] = source organism: Human immunodeficiency virus type 1 (ELI ISOLATE)
[38] = source organism: Mycobacterium tuberculosis variant bovis BCG str. Pasteur 1173P2

## AMDTHLYFE
HLA-A*02:12 [1]; [33]
  Kd: 0.284 µM
HLA-B*39:01 [2]; [33]
  Kd: ≥ 20 µM
HLA-A*02:01 [3]; [33]
  Kd: ≥ 20 µM
HLA-B*18:01; [33]
  Kd: ≥ 20 µM
HLA-A*02:19 [4]; [33]
  Kd: ≥ 20 µM
HLA-A*02:03 [5]; [33]
  Kd: ≥ 20 µM
HLA-A*29:02
  Kd: ≥ 20 µM
HLA-B*46:01 [6]; [33]
  Kd: ≥ 20 µM
HLA-B*51:01 [7]; [33]
  Kd: ≥ 20 µM
HLA-A*26:01 [8]; [33]
  Kd: ≥ 20 µM
HLA-B*57:01 [9]; [33]
  Kd: ≥ 20 µM
HLA-B*15:01 [10]; [33]
  Kd: ≥ 20 µM
HLA-A*03:01 [11]; [33]
  Kd: ≥ 20 µM
HLA-A*02:11 [12]; [33]
  Kd: 0.0539 µM
HLA-A*24:03; [33]
  Kd: ≥ 20 µM
HLA-B*15:17
  Kd: ≥ 20 µM
HLA-B*27:03 [13]; [33]
  Kd: ≥ 20 µM

## FILSGRFSY
HLA-B*15:02; source organism: Shigella flexneri
  Kd: 0.396 µM

## GLLDWGMQQ
HLA-A*02:01 [3]; [34]
  Kd: 0.119 µM
HLA-A*02:06; [34]
  Kd: 1.55 µM

## GLYQGIVGF
HLA-B*15:02; source organism: Rickettsia prowazekii str. Madrid E
  Kd: 0.0596 µM

## HMLVVIRKY
HLA-B*15:02; source organism: Clostridium botulinum A str. ATCC 3502
  Kd: 0.194 µM

## IFIRTIYYH
HLA-A*02:12 [1]; [35]
  Kd: ≥ 20 µM
HLA-B*39:01 [2]; [35]
  Kd: ≥ 20 µM
HLA-A*02:01 [3]; [35]
  Kd: ≥ 20 µM
HLA-B*18:01; [35]
  Kd: ≥ 20 µM
HLA-A*02:19 [4]; [35]
  Kd: ≥ 20 µM
HLA-A*02:03 [5]; [35]
  Kd: ≥ 20 µM
HLA-B*46:01 [6]; [35]
  Kd: ≥ 20 µM
HLA-B*51:01 [7]; [35]
  Kd: ≥ 20 µM
HLA-A*26:01 [8]; [35]
  Kd: ≥ 20 µM
HLA-B*57:01 [9]; [35]
  Kd: ≥ 20 µM
HLA-B*15:01 [10]; [35]
  Kd: ≥ 20 µM
HLA-A*03:01 [11]; [35]
  Kd: ≥ 20 µM
HLA-A*02:11 [12]; [35]
  Kd: ≥ 20 µM
HLA-A*24:03; [35]
  Kd: ≥ 20 µM
HLA-A*02:16 [14]; [35]
  Kd: ≥ 20 µM
HLA-B*27:03 [13]; [35]
  Kd: ≥ 20 µM

## ILRDGQRWY
HLA-B*15:02; source organism: Yersinia pestis CO92
  Kd: 0.0552 µM

## LTYRHKVVK
HLA-A*31:01; source organism: Japanese encephalitis virus
  Kd: 0.0239 µM
HLA-A*11:01; source organism: West Nile virus
  Kd: 0.0298 µM

## MARPADASM
HLA-A*02:12 [1]; [36]
  Kd: ≥ 20 µM
HLA-B*39:01 [2]; [36]
  Kd: ≥ 20 µM
HLA-A*02:01 [3]; [36]
  Kd: ≥ 20 µM
HLA-B*18:01; [36]
  Kd: ≥ 20 µM
HLA-A*02:19 [4]; [36]
  Kd: ≥ 20 µM
HLA-A*02:03 [5]; [36]
  Kd: ≥ 20 µM
HLA-B*46:01 [6]; [36]
  Kd: 2.2 µM
HLA-A*26:01 [8]; [36]
  Kd: ≥ 20 µM
HLA-B*57:01 [9]; [36]
  Kd: 0.121 µM
HLA-A*03:01 [11]; [36]
  Kd: ≥ 20 µM
HLA-A*02:11 [12]; [36]
  Kd: ≥ 20 µM
HLA-A*24:03; [36]
  Kd: ≥ 20 µM
HLA-A*02:16 [14]; [36]
  Kd: ≥ 20 µM
HLA-B*27:03 [13]; [36]
  Kd: ≥ 20 µM

## QLLDFLLAY
HLA-B*15:02; source organism: Shigella dysenteriae Sd197
  Kd: 0.0558 µM

## SLGQHIYET
HLA-A*02:12 [1]; [37]
  Kd: 0.0225 µM
HLA-A*02:01 [3]; [37]
  Kd: 0.012 µM
HLA-A*69:01 [15]
  Kd: ≥ 20 µM
HLA-A*02:19 [4]; [37]
  Kd: 0.084 µM
HLA-A*02:03 [5]; [37]
  Kd: 0.0065 µM
HLA-A*02:06; [37]
  Kd: 0.011 µM
HLA-A*02:16 [14]; [37]
  Kd: 0.006 µM

## SLYEKSGSV
HLA-A*02:12 [1]; [38]
  Kd: 0.0341 µM
HLA-A*02:19 [4]; [38]
  Kd: 0.13 µM
HLA-B*07:02 [16]
  Kd: ≥ 20 µM
HLA-A*02:03 [5]; [38]
  Kd: ≤ 0.001 µM
HLA-A*02:11 [12]; [38]
  Kd: 0.0011 µM

## SYYCAGLKK
HLA-A*31:01; source organism: dengue virus type 1
  Kd: 1.96 µM
HLA-A*11:01; source organism: Dengue virus 1 Singapore/S275/1990
  Kd: 0.0801 µM

## YGSWFGLIY
HLA-A*02:12 [17]
  Kd: ≥ 20 µM
HLA-B*39:01 [18]
  Kd: ≥ 20 µM
HLA-A*02:01 [19]
  Kd: ≥ 20 µM
HLA-A*69:01 [20]
  Kd: ≥ 20 µM
HLA-A*02:19 [21]
  Kd: ≥ 20 µM
HLA-B*07:02 [22]
  Kd: ≥ 20 µM
HLA-A*02:03 [23]
  Kd: ≥ 20 µM
HLA-B*46:01 [24]
  Kd: ≥ 20 µM
HLA-B*51:01 [25]
  Kd: ≥ 20 µM
HLA-A*26:01 [26]
  Kd: ≥ 20 µM
HLA-B*57:01 [27]
  Kd: ≥ 20 µM
HLA-B*15:01 [28]
  Kd: 0.18 µM
HLA-A*03:01 [29]
  Kd: ≥ 20 µM
HLA-A*02:11 [30]
  Kd: ≥ 20 µM
HLA-B*35:01
  Kd: 0.006 µM
HLA-A*68:02
  Kd: ≥ 20 µM
HLA-A*02:16 [31]
  Kd: ≥ 20 µM
HLA-B*27:03 [32]
  Kd: ≥ 20 µM

Reference: the Immune Epitope Database (IEDB)
